Source: paper PMC10881500
pKd: −log10 of the molar value.

What was measured:
[1] = molecular target: HuJovi-1 (humanized Jovi-1), human IgG1 (human); assay: SPR; Biacore T200; antibody as human IgG1 captured with an anti-human capture kit on CM5 to 200 RU; TRBC1 or TRBC2 as analyte, 150 s contact, 300 s dissociation, 30 μl/min, 25 °C, HBS-P+ pH 7.4; 1:1 Langmuir model
[2] = molecular target: KFN (Mut3; HuJovi-1 VH T28K, Y32F, A96N), human IgG1 (human); assay: as above
Sequence of KFN (Mut3; HuJovi-1 VH T28K, Y32F, A96N), human IgG1 (human) (heavy, as listed by the source, chain 1 of 2): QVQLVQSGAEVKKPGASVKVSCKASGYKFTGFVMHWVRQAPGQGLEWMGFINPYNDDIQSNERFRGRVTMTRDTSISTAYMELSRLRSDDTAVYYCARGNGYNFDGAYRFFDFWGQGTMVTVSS
Sequence of KFN (Mut3; HuJovi-1 VH T28K, Y32F, A96N), human IgG1 (human) (light, as listed by the source, chain 2 of 2): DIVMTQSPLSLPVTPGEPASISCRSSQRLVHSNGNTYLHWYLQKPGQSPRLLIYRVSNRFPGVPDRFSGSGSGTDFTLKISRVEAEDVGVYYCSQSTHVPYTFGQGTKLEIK

Sequence of HuJovi-1 (humanized Jovi-1), human IgG1 (human) (heavy, as listed by the source, chain 1 of 2): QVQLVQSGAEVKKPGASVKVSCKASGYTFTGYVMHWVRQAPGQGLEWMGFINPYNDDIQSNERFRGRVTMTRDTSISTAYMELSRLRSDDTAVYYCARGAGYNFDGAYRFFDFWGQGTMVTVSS
Sequence of HuJovi-1 (humanized Jovi-1), human IgG1 (human) (light, as listed by the source, chain 2 of 2): as the sequence (light, as listed by the source, chain 2 of 2) above

Row | Substance | pKd [1] | koff [1] [s⁻¹] | pKd [2] | koff [2] [s⁻¹]
1 | Recombinant, purified TRBC2 (soluble αβ TCR with the β-chain constant domain TRBC2), SPR analyte | 4.89 | 1.29 | – | –
2 | Recombinant, purified TRBC1 (soluble αβ TCR with the β-chain constant domain TRBC1), SPR analyte | – | – | 5.71 | 0.155
